Laboratory results published in a protein production outcome set (Wang et al. 2014).

Test: label from the status in PepcDB records

Question: For “MTEQFVIIILLIALGYFLKRMNYLKATDSQVLSTLVLNVTLPSLVIVNLNSAKLDVSFSILPIMMIIYGIVAKIIVIWFFRKYDNHMRGSVGMMTGSMNIGLFAYPLVEAIWPSKGMIYFGMVDIGGAIIMFGITYFVGSYFSEGSDQFNFKFLGKKLVQSVPLVTYMIMFGLNMSHIHIWQPAIDFFSVLSKANMPLSMILLGVMLNFSIEREYLPVTIKYLCLHYGLGMLAGTLVHFLLPVSDDMIKTTLLITWLLPVGVAIIPYSIQFKYKTLPFVGMVTNLTIIISIIILYIYQAVFV”, which protein production is on record?
Answer: Its protein production is “failed”.

Question: Which protein production does the source give for “MTESESASGMDGVVLGGTASGVGKTVATLAVARALADAGHDVQPAKAGPDFIDPSHHEPVVGTPSRSLDPWLSGTDGMRRTYHQGDGDVCVVEGMMGLYDGSVASTARVASELDLPVVLVVDASAGMQSVAATALGFQAYAAEASVDVDVAGVLAQRAHGGRHADGIRDALPDSLTYFGRVPPRDDLDVPDRHLGLHMGSEAAIDDDAVDAAAAHVAAKRIADVARTPPRPPAHDPAPDTGQTVAVADDAAFCFAYPATRERLRERADVVTFSPVAGDDLPACDGVYLPGGYPELHTDALADAPALDTLGARAADGLPVLGECGGLMALAESLTTTDGDTAEMAGVLPADVRMQDRYQALDHVELRATGDTLTAGSGATLRGHEFHYSAATVASDARFAFAVERGDGIDGDHDGLTEYRTLGTYAHVHPESTAFDAFLDAL” here?
Answer: The protein production was “failed”.

Question: For “MTESIVCHKCQEAITKRMITALGKTWHPEHFLCHHCDEQILDATFNVQSGEPVCNKCFVERYTYTCAGCKKPILEKTICAMGESWHEDCFCCGGACKKPLANQTFYERDGKPYCKKDYEDLFAARCAKCEKPITDSAVLAMNVKWHRDCFRCNKCENPITSQTFTIDGDKPVCPACNC”, which protein production is on record?
Answer: The protein production was “failed”.

Question: With “MTETESKWDEKLKRFFKDYYWNEILQLANEYPDQRSLAVDFTDIEKFDRDLSREFLEHPGELISAAEAALKEIDLPVEKNLEQAHVRVIKIPNRIPIRELRSKHLTRFVAIEGMIRKATEVRPRITKAAFQCLRCGHLTIVEQNSFKFEEPFAGCEEETCGKKGPFKVSIEDSTFIDAQKLQIQESPENLKGGSQPQSLEVDSEDDLTGNVTPGDRVIINGVLKSRQRTLKDGKSTFYDLILEANSIERLDKDYDELEISAEEEEQILELSRDPAIYEKIISSIAPSIYGYEDIKEALALQLFSGVVKNLPDGSRTRGDIHMMLVGDPGIAKSQLLRYVVKLSPRGVFASGRSASASGLTAAAVKDDMNDGRWTIEGGALVMADMGVAAVDEMDKMRTEDKSALHEAMEQQTISIAKAGIIATLKSRCALLGAANPKYGRFDRYEGLADQINMPPALLSRFDLIFVLLDTPNHSLDSRIANHILQSHYAGELSEQRQKLPGSTISEEFVDAEMEIIEPVIAPEFMRKYIAFARKNVYPVMEEDTRHHLINFYTDLRRSGEGKNTPVPVTARQLEALVRLSEASARVRLSNIVTLEDAKRTIRIVMNCLKNVGVDPETGALDADILASGTSMSQRNKIKLLKDIIKKVSDRHPGSKAPLEEVYAEAESEHGIDRGHAEEYIKKMKQRGDILSPDQTHIRLIN” as the sequence, how does the protein production read?
Answer: The protein production was “failed”.

Question: For “MTETFNPDLDLKISRIIKAPRRLVWNAWTDKTSLEQWWVPHPGQCRVDKMELHPGGAFETRYSEDGREFGQHVSGCFLAVDHEQRLIFTDALTAGFRPSAQPFLTAVMTFRDHPDGMEYEAYAMHNNLADRDRHAEMGFFDGWNTVAEQLAQLVEKQAAH”, which protein production is on record?
Answer: Its protein production is “failed”.

Question: For “MTETIKCIGCGVEIQTEDKNEVGYAPASSLEKEQVICQRCFRLKHYNEIQDVSLTDDDFLRILNGIGKSDALVVKIVDIFDFNGSWLPGLHRFVGNNKVLLVGNKADLIPKSVKHDKVKHWMRYSAKQLGLKPEDVFLISAAKGQGIAELADAIEYYRGGKDVYVVGCTNVGKSTFINRMIKEFSDETENVITTSHFPGTTLDLIDIPLDEESSLYDTPGIINHHQMAHYVGKQSLKLITPTKEIKPMVFQLNEEQTLFFSGLARFDYVSGGRRAFTCHFSNRLTIHRTKLEKADELYKNHAGDLLSPPTPEELENMPELVKYEFNIREPKTDVVFSGLGWVTVNEPGAKIVAHVPKGVSVSLRKSLI”, which protein production is on record?
Answer: Its protein production is “not failed”.

Question: With “MTETIPVFDGHNDFLLRLLRNPANRETIWLKGDGTGHLDLPRMKEGGFAGGFFAIYVPSPQAHDAAHFEAMMDAPPFELPLPPMIRAEQAQPVALAMAGHLLWMERAARGRFKVCRTAAEVRSCHADGIVSGIMHMEGAEAIGADLDALHLFHSLGLRSLGPVWSRPTVFGHGVPFRFPGSPDTGEGLTEAGRRLVAECNRLKIMLDLSHLNEKGFDDVARLSDAPLVATHSNAHAVTPSTRNLTDRQLAMIRESRGMVGLNFATSFLREDGRRSAEMGWEPVLRHLDHLIDRLGEDHVGMGSDFDGATIPQGIADVTGLPALQAAMRAHGYDEPLMRKLCHENWYGLLERSWG” as the sequence, how does the protein production read?
Answer: Its protein production is “not failed”.

Question: Which protein production does the source give for “MTETNHDQAEYWGKSASGMKWLTFEEQIAASFAPVVDLLLERAALKPGQRVLDIGCGLGDVTLAAAQAVGPGGHVLGVDISAPFLERAGLRASGMGNVGFALADAQSEPFAPAERDAVLSRFGMMFFSDTVAAFANIARALKPGGRMTFAAWGPLAGNPWFYLPHRAATDRLGQMPKVDRNAPGPLAFHDIDRVTGLMAEAGLADIEAQAVDLNLTPPGGLEGAAALCTRLGPAARVLAHFNGSEADEAAIRDAVSAALEPYVEGGEVLMPATINLFQARRAGTA” here?
Answer: Its protein production is “failed”.

Question: For “MTETYNKEQQEAMKKMMSFQMLYMLIMLGSLFIVITPSSRDAVGNLLNVVLIPTIGFGYRYPLLSIILTGVIIGVILSIPRYFFTDWVKMGKMQNTMKAFNEAIRAAYRERDMKKINKLNSMRMQMSMDQYQLSMNTMKPLLVISVLTILFYAWLFVFVGKIPYNYIAFPWDFNINISTAHFWIMPYWIFMYFLTEIVVSYFITMIMKYIDFTLRLRRISRETSS”, which protein production is on record?
Answer: Its protein production is “failed”.

Question: With “MTEVRPGAVASASLWERDAEIAALVEAVDALRADSPSSGSGSLLVFSGEAGIGKTALLGETRRIAESRGCTVWSARGGETVTSVPFNVVRQLLQPALVALMPDEAREYLGDWYDIAGPALGITEPGDRQADPQGVCDGLVAAVRRLARREWPLVLLIDDAHWADQETLHWLAAFAERLHDLSVLVVVARRPGEATEESTRHLDVIAAAAGPVATLSALTPEATAGLTRATVGVHADAPFCREVWAVTGGNPYETVELLAKVQDSELEPSESSAAELRALNRSARGRGLVARLEGLGIDATRFAWAAAILGTGISLDLAAQLAGMQREEALHCADLLGAARILTEPAPVNGRQPDGDLEFVHPLIASAVYNSIPDALRTAMHGVAAQVVTDSGLGAAAASRHLLEVHPDDDAELVDQMREAAREHLAVGAPDAARRCLERALLEPPLSDVHARVLYELGCATLLTSPATTIDYLQAALAMPGLDGDVRVDAVFRLSQALLHNNQVEEAVRTVDAEAARLEPGPARMRLQAVHYMWECVHAGEDISPTSVRALAELAKKCTGKDNSERALLILRGFDAMTRGENAEEVAELCDRALVNGRLAPGLGWTDTEWGIELLMMLASAYAYADRLDRAEALYNEALRAYEGAGWSGGHLALAHSYVGLGHRRRGRLTEAEKYLRESLRIAERVGRGLPLYWSATCGLVDTLLARGHVEEAAEIAERYGFGPPYPTTIVLPDTRSVRGRLLLALGRTEEGVNELEAAEKAATARGHHNTVLAPWALDLARALAVDDPRRAAELAATARRQAERFGTDTAIGEALRCAAALETGQRAASLYKQAVTYLEASPCSYEHAAARVEYGIATRSATELTRGLTLARSCGADGLVAQAQEALDNGPGLR” as the sequence, how does the protein production read?
Answer: The protein production was “failed”.

Question: For “MTEVSFFLSDNNWYFVVVINNKDFCMKCHRLNEVMELLHPVWEENSDLNLVQLLQKLADEAGFKGQLSDLTDDILIYHLKMRGSAPTEVIPGLKKDYEEDFKTAILRARGVIKD”, which protein production is on record?
Answer: The protein production was “failed”.

Question: For “MTFALGQRWISDTESDLGLGTVVAMDARTVTLMFAASEENRVYARNDAPVTRVTFNVGDVIDCQEGWSLKVEEVLEDEGLYTYFGTREDTQETAVVLREIFLSNQIRFNKPQDKLYAGQIDRMDNFVLRY”, which protein production is on record?
Answer: Its protein production is “failed”.

Question: Which protein production does the source give for “MTFANTASINHYWRTHPALFTAMLLVVVLITSYFIDVFSGSAIAVLLILQLAVVVVALQCSANYAYFVAVFGAVSFNFLFTAPRYSLQMLNVEDIVNLTVFLLAALTSSKLAKHYRRQQDALEQAQLRNSILLSVSHDLRTPLATIIGTLTTLKEYQPKLSPAQTEELIDSAAAESHRLHQYIENLLQANKLQHGALKFSLDEANIREVLQRTIARFQTEQPRIQIQSEPELPSLMICSSLIEQAIFNVLDNALHYSPATQPVTVSLYRHQHMLRIDIQDQGKGIAPSQTGAIFELFYRQHPTTDGGAGLGLPVAKGIITAHNGTISAEKVAHGSLIRIALPITKESA” here?
Answer: Its protein production is “failed”.

Question: For “MTFCYVNAYQGGYILYNKGTKSKEVAKMSTKKVYSFLSQAFIFSAIMLISNIIATHLPIPMPSSVIGLVILFSLLCLKVIKLEQVESLGTALTGIIGFLFVPSGISVINSLGVMGQYFVQILTVIVVATVILLAVTGLFAQFILGKDEKETEDTKELKVVNKGRKHGKVA”, which protein production is on record?
Answer: Its protein production is “failed”.

Question: With “MTFGEKLLNAASTRGRLCVGIDPHESLLTSWGLPVNVDGLAEFSRACVEAFADTVALVKPQVAFYERFGSAGFAILEETIQTLRERGCLVVSDAKRGDIGSTMAGYASAWLDPASPLSSDAVTVSPYLGFHSLDPVFELAEQHGRGVFVLAATSNPEARELQDQQNADGVSISQQIVDQAAALNAPYMAQGKAGNIGVVIGATLSKPPRLSTLGGAILMPGVGAQGGTASDVDEIAGDMAHLAFPNVSRSILATGPDIAEMKNSVAKNAADFPGFPRS” as the sequence, how does the protein production read?
Answer: Its protein production is “failed”.

Question: For “MTFLQRWQGLADNKICAFAWFVIRRFSEERVPQAAASMTFTTLLALVPVLTVMVAVASIFPVFDRWSDSFVSFVNQTIVPQGADMVFDYIDAFRDQANRLTAIGSVMLVVTSLMLIRTIDNAFNRIWRVNTQRPWMMQFLVYWALLTFGPLSLGVGISFMVGSVQDSVLSSGAQQWADALKTAARLAFMTLLLWGLYRFVPNRFVPARQAFVGALITAFCLETARFLFTWYMGNFDGYRSIYGAFAAVPFFLLWLNLLWTLVLGGAVLTSSLSYWQGEAFRRGFDSRGRFDDVLKILLLLDAAQKEGRTLSVQEFRRHINMGYDELGELLEKLARYGYIYSGRQGWVLKTGADSIELSELFKLFVYRPLPVERDHVNQAVDAVMTPCLQTLNMTLAEFDAQAKKQQQS”, which protein production is on record?
Answer: Its protein production is “failed”.

Question: With “MTFTSSFHYQALPMRVSFEVGAVTKIGEELDRLGLSRALVLCTPEQKHLADLVMDHLGDRGAGIFDQARMHVPVETADRARDRARKLGADSCVVIGGGSSIGLGKAIALEHGLPIIAIPTTYAGSEMTPIWGLTRDGRKQTGRDAKVLPQSVIYDPQLTATLPAEISAASGLNAVAHAVEALYAPDASPIISLMAEEGVRAFAESLPAVVADGNDLDARSKALYGAWLCGACLGATTMSLHHKLCHVLGGSLDLPHAQTHAIVLPHVLGYNESHAPAARAALQRALGTDGDPSTALWELEQQLQIPHSLEELGVRETQLPAVIDEVLSNPYSNPTPVTEDGLRHLLGQALRGDRPTRR” as the sequence, how does the protein production read?
Answer: The protein production was “failed”.

Question: With “MTGAVVVDIPLRWSDMDAQGHVNNVRISELVQESRNQAFYTNGAQEMLDTGIVVVSQDVEFLAPFVVDGSPLRVAVGCSQLGAARTVLDYRAWHHDVEVARARGTICPFDFATGRPRRLTDGERGAFESMKVESQQWKPIKVVDVSEAGDFIEVPIRWSDVDRQGHVNNVSLAGYLQEARILATTSWSPGMRRAGNYLWVVVRQDIRYRRQVLPTQRSCRVHTALTRLGTSSMTLAGSIATEEGSALDAATVLVCVDPKTGASVPIDDQTRQALSAYLVTV” as the sequence, how does the protein production read?
Answer: The protein production was “failed”.

Question: With “MTGLINAIPATNKDEYKNVGVYIEHRGDELKRPSIEMIGIGKQLARKVNEKLICVVIGDKVDGIAKEVGEYGCDIVLAAESPELAEYRTMPYAEIIGGYIQEYKPNIFLLAATRNGRDLASRIAVKSRTGITADCTVLDIDENRTLLANRPTYGESTLAEILCRNHRPQMATARPGIFPPAEKEKDHKYEVIKKKVDVDKKLLGKQILKFIPRKSTDLTSAKIVVAGGLGLGGPDGFKMLEELANLIGGAVGSSRPPVDLGWITRDHQVGQTGQSVRPDLYIAVGISGKPQHIAGMKFSKVIVSINKDPNAEITKYSDYIITEDYRKVIPALIDAIKNSKKAQAPVQKA” as the sequence, how does the protein production read?
Answer: The protein production was “failed”.
